Test results published in patent US20230076637A1 (AJOU UNIVERSITY INDUSTRY ACADEMIC COOPERATION FOUNDATION, published 2023).

Tests used:
[1] = target: T1, HLA-A*02:01 expressed on the surface of cancer cells (human); assay: summary table, column MHC-1 display at 4 C
T1 construct: whole, on cells; also called cell-surface HLA-A*02:01; HLA-A2

[2] = target: T1, HLA-A*02:01 expressed on the surface of …; assay: flow cytometry, MDA-MB-231 cells (4 °C scheme of FIG. 9a), detection with C1-17
[3] = target: T2, CMVp495-503/HLA-A*02:01 complex (cytomegalovirus (CMV); human); assay: flow cytometry, cancer cells pulsed with CMVp495-503 peptide, anti-mouse Fc secondary
T2 construct: whole, on cells; also called CMV peptide-MHC-I complex
Protocol: A negative control group not treated with peptide was added with DMSO. After 3 hours, centrifugation was performed at 1300 rpm for 3 minutes to remove the supernatant containing the peptide not bound to the cells, and the cells were washed with a FACS buffer and centrifuged at 1300 rpm for 3 minutes to remove the supernatant. […] After each sample was washed with 1 ml of a FACS buffer, a F(ab′)₂ antibody that specifically recognizes Alexa647 (red fluorescence)-conjugated mouse Fc was diluted 1:1200 in 100 μl of a FACS buffer, followed by reaction at 4° C. for 30 minutes. The cells were washed with 1 ml of a FACS buffer and then analyzed through flow cytometry.

B1: inCT99†CMVp480-503 fusion antibody (antibody)
heavy: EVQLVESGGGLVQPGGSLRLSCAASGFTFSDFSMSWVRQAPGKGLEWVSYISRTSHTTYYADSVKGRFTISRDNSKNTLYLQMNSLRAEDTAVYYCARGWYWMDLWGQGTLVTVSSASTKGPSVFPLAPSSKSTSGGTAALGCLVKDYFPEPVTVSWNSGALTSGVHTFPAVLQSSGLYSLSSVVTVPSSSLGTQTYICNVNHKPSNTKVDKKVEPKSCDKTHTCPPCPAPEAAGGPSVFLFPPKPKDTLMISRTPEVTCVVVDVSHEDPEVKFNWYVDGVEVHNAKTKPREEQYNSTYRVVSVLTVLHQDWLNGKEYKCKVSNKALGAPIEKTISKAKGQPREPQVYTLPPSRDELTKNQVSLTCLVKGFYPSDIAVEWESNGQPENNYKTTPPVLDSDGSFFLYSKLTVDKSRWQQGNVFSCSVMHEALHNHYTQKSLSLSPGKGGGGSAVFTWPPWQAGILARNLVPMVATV
light: SDGVRQCRGDCFDGPLMGSSSNDIQMTQSPSSLSASVGDRVTITCKSSQSLLNSRDGKNYLAWYQQKPGKAPKLLIYDASNLETGVPSRFSGSGSGTDFTFTISSLQPEDIATYFCQQYWYWMYTFGGGTKVEIKRTVAAPSVFIFPPSDEQLKSGTASVVCLLNNFYPREAKVQWKVDNALQSGNSQESVTEQDSKDSTYSLSSTLTLSKADYEKHKVYACEVTHQGLSSPVTKSFNRGEC
[1]
  binding result: binds

B2: inCT99†CMVp480-510 fusion antibody (antibody)
heavy: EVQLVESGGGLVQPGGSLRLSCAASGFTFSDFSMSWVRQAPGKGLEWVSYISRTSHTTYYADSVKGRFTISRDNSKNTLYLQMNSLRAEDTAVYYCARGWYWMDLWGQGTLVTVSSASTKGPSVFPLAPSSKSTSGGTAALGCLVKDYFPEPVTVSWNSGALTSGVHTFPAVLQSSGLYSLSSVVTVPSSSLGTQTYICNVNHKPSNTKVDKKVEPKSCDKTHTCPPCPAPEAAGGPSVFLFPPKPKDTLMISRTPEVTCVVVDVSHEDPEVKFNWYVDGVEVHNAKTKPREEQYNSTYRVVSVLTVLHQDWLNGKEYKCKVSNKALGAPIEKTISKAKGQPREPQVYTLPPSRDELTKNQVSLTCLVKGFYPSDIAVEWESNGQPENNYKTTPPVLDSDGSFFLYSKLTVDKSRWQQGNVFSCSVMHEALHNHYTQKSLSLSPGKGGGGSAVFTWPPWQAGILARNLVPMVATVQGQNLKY
light: SDGVRQCRGDCFDGPLMGSSSNDIQMTQSPSSLSASVGDRVTITCKSSQSLLNSRDGKNYLAWYQQKPGKAPKLLIYDASNLETGVPSRFSGSGSGTDFTFTISSLQPEDIATYFCQQYWYWMYTFGGGTKVEIKRTVAAPSVFIFPPSDEQLKSGTASVVCLLNNFYPREAKVQWKVDNALQSGNSQESVTEQDSKDSTYSLSSTLTLSKADYEKHKVYACEVTHQGLSSPVTKSFNRGEC
[2]
  binding result: no binding

B3: H9#1 TCR-like antibody (antibody, mouse IgG2a, kappa, V domains shown)
VH: EVQLVQSGAEVKKPGSSVKVSCKASGGTFSSYAISWVRQAPGQGLEWMGGIIPIFGTANYAQKFQGRVTITADESTSTAYMELSSLRSEDTAVYYCARGDLYYYDSSGYPLWYMDYWGQGTLVTVSS
VL: ETTLTQSPGTLSLSPGERATLSCRASQSVSSSYLAWYQQKPGQAPRLVIYGASSRATGIPDRFSGSGSGTDFTLTISRLEPEDFAVYYCQDYSTYPAFTFGQGTKLEIRR
[3]
  binding result: binds

B4: H9 TCR-like antibody (antibody, mouse IgG2a, kappa, V domains shown)
VH: EVQLVQSGAEVKKPGSSVKVSCKASGGTFSSYAISWVRQAPGQGLEWMGGIIPIFGTANYAQKFQGRVTITADESTSTAYMELSSLRSEDTAVYYCARGDLYYYDSSGYPRYYFDYWGQGTLVTVSS
VL: ETTLTQSPGTLSLSPGERATLSCRASQSVSSSYLAWYQQKPGQAPRLVIYGASSRATGIPDRFSGSGSGTDFTLTISRLEPEDFAVYYCQHYSTSPGFTFGQGTKLEIRR
[3]
  binding result: binds

B5: C1-17 TCR-like antibody (antibody, mouse IgG2a, kappa, V domains shown)
VH: EVQLVQSGAEVKKPGSSVKVSCKASGGTFSSYAISWVRQAPGQGLEWMGSIIPIFGVAEYAHKFQGRVTITADESTSTAYMELSSLRSEDTAVYYCARGDLYYYDSSGYPLWYMDYWGQGTLVTVSS
VL: ETTLTQSPGTLSLSPGERATLSCRASQSVSSSYLAWYQQKPGQAPRLVIYGASTRPTGIPDRFSGSGSGTDFTLTISRLEPEDFAVYYCQDYSTYPAFTFGQGTKLEIRR
[3]
  binding result: binds
